What was measured:
Test in all cases: two-hybrid
[1] = molecular target: HP0221-T25 (NifU) (Helicobacter pylori strain 26695) (UniProt O25009)
[2] = molecular target: T25-HP0221 (NifU) (Helicobacter pylori strain 26695) (UniProt O25009)
[3] = molecular target: T25-HP0220 (NifS) (Helicobacter pylori strain 26695) (UniProt O25008)
[4] = molecular target: T25-HP1492 (Nfu) (Helicobacter pylori strain 26695) (UniProt O26025)
T25-Zip = molecular target: T25-Zip
Chain of T25-Zip (P03069 whole entry): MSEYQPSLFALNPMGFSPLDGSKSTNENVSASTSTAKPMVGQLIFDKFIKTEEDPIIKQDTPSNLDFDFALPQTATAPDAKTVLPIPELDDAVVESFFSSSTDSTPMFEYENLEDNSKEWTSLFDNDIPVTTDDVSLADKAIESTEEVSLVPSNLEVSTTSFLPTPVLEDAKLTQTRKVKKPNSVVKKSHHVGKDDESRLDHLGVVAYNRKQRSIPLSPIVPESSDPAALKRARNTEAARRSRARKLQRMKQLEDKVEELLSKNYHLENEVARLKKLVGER

Chain of T18-Zip (domain or fragment) (P03069 whole entry, the tested form may be a part): as the sequence (P03069 whole entry) above

## T18-HP0117 (from UniProt P56080 2-308) (natural protein)
[1]
  growth OD595 in M63-maltose: 0.36 OD595

## T18-HP0142 (from UniProt O24954 2-328) (natural protein)
[1]
  growth OD595 in M63-maltose: 0.44 OD595

## T18-HP0221 (from UniProt O25009 2-326) (natural protein)
[2]
  growth OD595 in M63-maltose: 0.37 OD595

## T18-HP0285 (from UniProt P56130 2-418) (natural protein)
[1]
  growth OD595 in M63-maltose: 0.25 OD595

## T18-HP0400 (from UniProt P65185 2-274) (natural protein)
[2]
  growth OD595 in M63-maltose: 0.11 OD595

## T18-HP0468 (from UniProt O25214 2-495) (natural protein)
[1]
  growth OD595 in M63-maltose: 0.29 OD595

## T18-HP0768 (from UniProt P56414 2-321) (natural protein)
[1]
  growth OD595 in M63-maltose: 0.21 OD595

## T18-HP0934 (from UniProt O25588 2-251) (natural protein)
[1]
  growth OD595 in M63-maltose: 0.13 OD595

## T18-HP1266 (from UniProt O25856 2-844) (natural protein)
[2]
  growth OD595 in M63-maltose: 0.32 OD595

## T18-HP1406 (from UniProt O25956 2-282) (natural protein)
[1]
  growth OD595 in M63-maltose: 0.26 OD595

## T18-HP1492 (natural protein)
[3]
  growth OD595 in M63-maltose: 0.32 OD595
[4]
  growth OD595 in M63-maltose: 0.39 OD595
[1]
  growth OD595 in M63-maltose: 0.29 OD595
[2]
  growth OD595 in M63-maltose: 0.13 OD595

## T18-Zip (domain or fragment)
T25-Zip
  growth OD595 in M63-maltose: 0.23 OD595

— publication PMC5943153
